For three proteins, Km results are on record in PMC8354476, “Acyl-CoA oxidase ACOX-1 interacts with a peroxin PEX-5 to play roles in larval development of Haemonchus contortus” (PLoS Pathogens, 2021).

Substrate in this data set: CCCCCCCCCCCCCCCC(=O)SCCNC(=O)CCNC(=O)[C@H](O)C(C)(C)COP(=O)(O)OP(=O)(O)OC[C@H]1O[C@@H](n2cnc3c(N)ncnc32)[C@H](O)[C@@H]1OP(=O)(O)O
Description: purified protein. Format: biochemical, Haemonchus contortus. The conditions noted are these: 10 μM FAD, 50 mM potassium phosphate.

[1] abbreviates: pH 7.5, 42°C (optimum conditions).

B1: rHc-ACOX-1.1 (Haemonchus contortus) (protein)
chain: MPLNKLLRDGDNEDLAEERRKATFDTDEMAAIIWEGKERVRRRREITKKVNEYTELHDPYCQAFMTRHEEVENAARKITKMFSLIDKLGVNPTNAADMAHLTSEVIGLYGHPLALHAVMFIPSLQAQCADDQMHWLKKAMSRQIIGTYAQTELGHGTNLRKLETTATHDANTQEFVLHSPTRTAMKWWPGNLGKSANHAVVVACLIIDGKNYGPHNFIVPLRDPETHMPLKGITVGDIGPKMATGPVDNGFLSFDHYRIPRTNMLMKHAKVTPEGKYIPPAHAKVGYSAMVHVRSHMISDQAKFLAQALTTAIRYSAIRRQGEIQPGDGEVKILEYQTQQYRLLPQLARAYAFSFTGRAVRDLYLRVQKDVAKGKVDEMAELHYITSGLKAVVTHLTGEGISQARMSCGGHGYSKASNMPDLYGIAVADCTYEGENMVMLQQLARYLMRAAGEAEKGRALGRLVNYLVEPSDIHSSIDRQLDYDYKAHLKAFDKAAKLQVMKAYERMRALKAQGLSEEDAWNANAVELNRAARVHTRQYIAHQFYEQVSSVTDGRCREVPRDLLHLHLNYEILDMAYYLLEDGFLSGQQMDYMKEDMYRLLAKLRPNAVSLVDSWDISDHELRSVLGRRDGHVYENLYKWAQESELNRTQVLPTFEKYLKPMMMEAHAQSKL
notes: full-length transcript 2019 nt; N-terminal FLAG tag, pcDNA3.1, expressed in HEK293T cells, purified on anti-FLAG magnetic beads; locus chromosome IV: 9780094-9786809; Thr151, Gly190, Glu433 predicted sites; C-terminal PTS1 (SKL)
Regarding B1, where the note is “pH 7.5, 37°C (optimum conditions)”, the Km is 78.79 µM.

B2: rHc-ACOX-1.3 (Haemonchus contortus) (protein)
chain: MPFRGITVGDIGPKMAYNGVDNGFLAFDHYRIPRNNMLMKHVKVTPEGKYVPPAHAKVGYSAMVHVRAHMISTQAAFLAQALTTAIRYSAIRRQGEIQPGRGEVKILEYQTQQHRLFPQLARAYAFIFTGQAVRVIFQRVQKDVARGKVDEMAELHYISSGLKAVVTYLTGQGIEQARMSCGGHGYSKASNMSELYGVAIGGATYEGENMVMLQQLARYLMKSAEAAKNGRAVGKLVDYLVRSSEQRSAIDRKPDHDYTAHLKAFDKAAKLQVMKAYERMQSLRARGLTEEEAWNANAVELNRAARVHTRQYIARTFDEHVKAVVHGPCREVLLDLLYLHLNYELLDMAYYLLEDGYLSGQQMDYMKEDMYRLLARLRPNIVSLVDSWDFSDHELRSVLGRRDGHVYENLYKWAQESELNRTQVLPTFEKYLKPMMKQAREQSKL
notes: N-terminal FLAG tag, pcDNA3.1, expressed in HEK293T cells, purified on anti-FLAG magnetic beads; Glu206 active site; C-terminal PTS1 (SKL)
Consider B2, for which the Km under setting [1] was 12.64 µM.

B3: rHc-ACOX-1.2 (Haemonchus contortus) (protein)
chain: MPFRGITVGDIGPKMAYNGVDNGFLAFHHYRIPRNNMLMKHVKVTPDGKYVPPAHAKVGYSAMVHVRAHMISTQAAFLAQALTTAIRYSAIRRQGEIQPGQGEVKILEYQTQQHRLFPQLARAYAFIFTGQAVRVIFQRVQKDVARGKVDEMAKLHYISSGLKAVVTYLTGQGIEQARMSCGGHGYSKASNMSELYGVAIGGATYEGENMVMLQQLARYLMKSAEAAKSGRAVGKLVDYLVRSSEQRSAIDRQPDHDYSAHLKAFDKAAKLQVMKAYERMQSLRAQGLLEEEAWNANAVELNRAARVHTRQYIARTFDEHVKAVVHGPCREVLLDLLHLHLNYELLDMAYYLLEDGYLSGQQLDYMKEDMYRLLARLRPNIVSLVDSWDFSDHELRSVLGRRDGHVYENLYKWAQESELNRTQVLPTFEKYLKPMMKQAREQSKL
notes: N-terminal FLAG tag, pcDNA3.1, expressed in HEK293T cells, purified on anti-FLAG magnetic beads; locus chromosome IV: 9789018-9796292; Glu206 active site; C-terminal PTS1 (SKL)
For B3, under setting [1], the Km was 6.83 µM.
